Assay results reported in patent publication US20250034594A1, “RNA-GUIDED GENOME RECOMBINEERING AT KILOBASE SCALE” (THE BOARD OF TRUSTEES OF THE LELAND STANFORD JUNIOR …, priority 2021, published 2025).

B1: SSAP_306: SEQ ID NO: 475; Paenibacillus gorillae (protein, listed as Paenibacillus gorillae)
chain: LEAKHDALPSGFNAVRFVQNCKAYLPEVRNFERFNPDEIALQFLKGAILGLDFLAKECHVITEGSAARFQTDYKGEMKLAMKHSVRPLLNIYAKNVREGDVFRESVVEGRPVVSFDPLPFNNSKIIGSFAVAQFNDGGMDYESMSSTEIESIRTHYGKNPGSDTWEKSQGEMYKRTALRRLCKTIEIDFDAEQRLAFDAGSSFEFNREPRPQQQSPLNLESEVLTDEVEQG
B2: SSAP_228: SEQ ID NO: 397; Weissella koreensis (protein, listed as Weissella koreensis)
chain: ANELVKQLKSEKVAAQFETTAGKNAAAFASEVAISVMGNKALENASLSSVVVEATKASALGLSLLPTVGEAYLVPYKGQAQFQLGYKGLVQLAMRSGQMKSFGTVKVYEGEHPRWDKYSQELHTDGDETGEVVGYYAQFTLINGFKKADYWTKSAVEEHRSRFSKSKSGPWSTDFDAMAQKTVLKSILQYAPKSSEMTRAMASEDMNGDISEGTAKPIDITPETETPKVEEANQNQQIDTNEMVDEIKEYAKETNEAPKEQTVSAADEFFK
B3: SSAP_243: SEQ ID NO: 412; Nocardia puris (protein, listed as Nocardia puris)
chain: AESISSEVARQASPLAVVARYRSELAGSLPAAVRHDVDRWLMVAEMAVRRSPDLMEIVRRDQGASLMRALIECARLGHEPGSPEFYLIPRGGIVSGEESYRGIIKRILNSGEYQRVVARVVHERDRFSFDPRIDEIPDHRPAEGERGAPARAYAFAVRWDGTPSTVGEATPERIIAAKAKARGVDRKDSPWNSPTGVMYRKTAIRELASYVHTSAEPRPRPAAPTEPPAVDEVSTVYDAEVIDEVDVLDITAEPTA
B4: SSAP_52: SEQ ID NO: 221 (protein)
chain: TIMDLLNDPKMKSQIQRALPNGMSAERIARIALTALRMNPQLQECSPQSFAAALMTSAQLGLEPNTPLGHAWLIPRKNHGKMEVQFELGYKGMLDLVRRSGMITAIFAEEVREKDEFEFEYGTNPYLKHKPYLGGDRGKVLFYYAVATFKDGGYAFKVMSIPEIEEARKLSQSANSPYSPWNRFYDEMAKKTVLKRLCKYLPLSIEVQRNLAQDETIRTQIEADDILDLPNENEFEVVEVEEIPGEEEKEEAKEGPFPNKALRESPTPLT
B5: SSAP_166: SEQ ID NO: 335; Blautia sp. OF03-15BH (protein, listed as Blautia sp.)
chain: NVKEELAQKAEITQKEVKLKKSMSISDMIRALQPEIKKALPSVVTPERFIRMALSALNTTPKLAECSQISVLAALMNAAQLGLEPNTPMGQAYLIPFNNKGKMECQFQIGYKGLLELVYRNPAIQIIQAQTVYENDYFEYELGLNSRLIHRPELEDRGEIRLFYGLFKMVNGGYGFEVMSRQEMDQYAARYSKSFASGFSPWENNYEDMAKKTMIKRVLKYAPVKIETARALINDESIKLHLSEDMSEVENETVVDGQAEEKAA
B6: SSAP_167: SEQ ID NO: 336; Ruminococcus sp. (protein, listed as Ruminococcus sp.)
chain: GTSIQKNVENNALQKEKMPTMQAYIKKMEGEIKKALPSVMTPERFTRITLSALSTNPKLAATTPGSFLGAMMTAAQLGLEPNTPLGQAYLIPYSNKGKLECQFQIGYKGLIDLAYRSGSISVIQAHTVYENDDFEYELGLDPKLKHIPSKSADKGNPAWFYAVFKTKDGGYGFEVMSIEDIRSHAAKYSQSYNSAYSPWKTNFEEMAKKTVLKKALKYAPLKSDFVRQISTDETIKTKLSDDMFSVPAETIEVEGIEVDTETGEITEVDHA
B7: SSAP_300: SEQ ID NO: 469; Lactobacillus sp. (protein, listed as Lactobacillus sp.)
chain: NSLSGALNSRNQAGSPTSMIKNLMRSDSIKNRFDEVMGAKAPQFMASITNLVNSNQDLQHVDAMSVVASAMVAATLDLPIDPNLGYMYIVPYRGQAQPQMGYKGYIQLALRTGQYKHINALPVYDDEVKSWNPLTEELEYESSGTSHDNQTPAGYVGYFQLINGFEKTTYWTYDQINSHRQKFSKMSSKTDPTGVWKSNFDAMALKTVLRNLISKWGIMSIEMQQAFVKDERPQEFDHETGEIQDVQEVEAEEENVAPETQGSTDKKEE
B8: SSAP_112: SEQ ID NO: 281; Bacillus sp. UNC322MFChir4.1 (protein, listed as Bacillus sp.)
chain: ATNKDVKNQLANRKENKPATPEQKVEAYMTAMAPRFAEVLPKHMSMDRMSRIALTTIRTNPKLLECSVPSLMGAVMQAVQLGLEPGLLGHCYILPYKSEATFIIGYKGMIDLARRSGHIQSIYAHAVYENDEFDYELGLHPKLTHKPSFGERGEFIGAYAVAHFKDGGHQMEFMPKSEIEKRRSRSASGNSSYSPWKSDYEEMAKKTVVRYMFKYLPISIEVQSQAQHDEVVRKDITEEPEFIEMDSIEVAEASEGDGQKEFVIEE
B9: SSAP_2: SEQ ID NO: 173 (protein)
chain: ATNESLKNQLTTKKETGLGSAGNTIKGLMNSPAIKKRFEEVLKQRAPQYMSSIVNLVNSDINLKKCDQMSVVASCMVAATLDLPVDKNLGYAWVVPYGNKAQFQLGYKGYVQLALRTGQYKSINVIEIHEGELIDWNPLTEELKIDFSKKESDAVIGYAGYFELLNGFKKSTYWTKEQITKHKNKFSKSDFGWKKDFDAMARKTVLRNMLSKWGILSIEMQNAYTADQGIIKNEIMETGEVKENIEYIEADFESYEDNSIEEGGANE
B10: SSAP_125: SEQ ID NO: 294; Lysinibacillus fusiformis (protein, listed as Lysinibacillus fusiformis)
chain: ATTNELKAKSQNQVQQNVTPEQSLNTLLKRMGPQIQRALPKHMDADRIARIALTAVRATPKLLECDQMSFVAALMQSAQLGVEPNTGLGQAYLIPYGKQVQFQLGYKGLIDLAVRSGQYKAIYAHEVYKEDEFSFAYGLHKDLVHVPSTNPEGEPIGYYAVYHLKNGGYDFVYWTRERIDKHAHEFSQAVKKGWTSPWKTNYDAMAKKTVLKEVLKYAPKSIELQKVVEADETIKTEVSEDMSDVIDVTDYSVIEDESAQEELIIEQ
B11: SSAP_294: SEQ ID NO: 463; Parageobacillus thermoglucosidasius (protein, listed as Parageobacillus thermoglucosidasius)
chain: AKQADLKNKLANKNSTNPTAYLKNLVYAPTVQQKFKEVLKEKAAHFLTSLISLVDSSPDLQKCNPMTIIASAMKAATLELPIDKNLGYAWIVPYKNVATFQIGYKGYIQLALRTGLYRSINVIEVYEGELRKWNRLTEELDIDEGARKSDHVIGYAGYFELTNGFIKRVYWSKEDIERHRKKFAKSDFGWENNYDAMAKKTVLRNMLSKWGILSIDMQRAYVNDIDDPEQTKEVIDVEWSEIIEEANVANSPEQQEIVFEQ
B12: SSAP_188: SEQ ID NO: 357; Propionibacterium freudenreichii (protein, listed as Propionibacterium freudenreichii)
chain: TQQMPIKAQGEPTKELQQKAAVDRFNATLHQMQNEIARALPKHMTGDRFVRIVLTEVRKNPTLALCDPLTMFGSLLTAAALGLEPGLNGECWLVPRKNHGTLEAQLQVGYRGVVKLFWQNPAATYLDTGYVCERDEFRFAKGLNPILEHTPAEGDRGKVVRYYAVAGLNTGARVFDVFTPAQIKTLRGGKVGSNGDIPDPEHWMERKTALLQVLKLMPKSTQLAAVPAADGRAHTISDAQQIFGGVDPTTGEVLDAEPVEDGAA
B13: SSAP_281: SEQ ID NO: 450; Leucobacter luti (protein, listed as Leucobacter luti)
chain: SDLSQAAVAVKKSKTVEDYLTEYEPQFQRALGKSMDAAKFSQDALTAIKQTPQLGQADLQTLFGSLFLAAQLKLPVGGPLAQFHLTPRKRGDKLEVLPIIGFGGYVQLIMNTGLYSKVGAFLIYEKDYFDEGANSERGEFYDFKKSRGDRGPVVGVIAYVKLKGFDESQYVFLDADTIRSRHRPRYWEKTPWGSDEGEMFKKTGVRVLQKLLPKSVEAAPLALAADADQATVRKVDGIEDLTIQHDVVDAEVVPDGVPV

Experiments:
Type in all cases: cell-based
gene editing with Cas9 = assay: Screen of 322 new SSAP proteins, gene editing activity with Cas9 (Table 5); parameters: Cas9 with SSAP activity: scale not given here
Method in brief: (§1)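 Editing screen of 322 newly identified, synthesized SSAPs, each co-used with Cas9 and with dCas9.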

gene editing with dCas9 = assay: Screen of 322 new SSAP proteins, gene editing activity with dCas9 (Table 5); parameters: dCas9 with SSAP activity: scale not given here
Method in brief: as §1

[1] = tested on: gene editing with Cas9 and dCas9; assay: Screen of 322 new SSAP proteins, activity across all experiments (Cas9 and dCas9, Table 5); parameters: scale not given here
Method in brief: as §1

Molecule	Cas9 with SSAP activity (gene editing with Cas9)	Cas9 with SSAP activity (normalized) (gene editing with Cas9)	dCas9 with SSAP activity (gene editing with dCas9)	dCas9 with SSAP activity (normalized) (gene editing with dCas9)	Activity across all experiments [1]
B1	−2.932	−2.350	−5.884	−0.905	−4.408
B2	−4.425	−0.688	−5.964	−1.008	−5.195
B3	−1.310	−0.511	−5.989	−1.036	−3.650
B4	−0.544	−0.573	0.163	0.148	−0.190
B5	−1.338	−0.432	−5.849	−0.934	−3.593
B6	−1.337	−0.698	−6.070	−0.834	−3.703
B7	−4.466	−0.701	−5.916	−1.175	−5.191
B8	−1.038	−0.628	−6.027	−0.986	−3.533
B9	−7.779	−1.250	−6.114	−1.204	−6.946
B10	−1.981	−0.329	−6.106	−1.313	−4.043
B11	−7.102	−2.102	−5.929	−1.096	−6.515
B12	−6.279	−0.994	−5.957	−0.867	−6.118
B13	−1.121	−0.672	−6.188	−0.973	−3.655
